In paper PMC7509555, “An In Vitro Study for Evaluating Permeability and Metabolism of Kurarinone” (Evidence-based Complementary and Alternative Medicine : eCAM, 2020):
Each block holds one molecule with its values, some of them ahead of it.

Columns and labels:
Format in all cases: in vitro ADME, human
HLMs = test: Chemical inhibition study of kurarinone metabolism (P1 formation) in HLMs; conditions: kurarinone 20 μM in HLMs
Text: HLMs were utilized as metabolic enzymes.

[1] = substrate: C=C(C)C(CC=C(C)C)Cc1c(O)cc(OC)c2c1O[C@H](c1ccc(O)cc1O)CC2=O; test: Enzyme kinetics of P1 formation from kurarinone in recombinant CYP1A2; conditions: other: recombinant CYP1A2; kurarinone 1–200 μM; 37.0 °C
Method: (§1) Samples were prepared in a total volume of 200 μL, containing 0.3 mg/mL protein in human liver microsomes or 15 nM protein in recombinant human supersomes, probe substrates or 50 μM kurarinone, 10 mM MgCl2, 10 mM glucose-6-phosphate, and 1 unit/mL of glucose-6-phosphate dehydrogenase. The reactions were activated by adding NADPH following preincubation at 37°C for 5 min. The reactions were maintained at 37°C for 1 h and terminated by adding 200 μL ice-cold acetonitrile. The supernatant (10 μL) collected from the samples that were centrifuged (20,000 g, 20 min, 4°C) was injected into the HPLC system for analysis. Control incubations devoid of NADPH or kurarinone were performed parallelly to ensure that the produced metabolites were NADPH- or kurarinone-dependent.
(§2) Various concentrations of kurarinone (1–200 μM) were incubated with RLMs, MLMs, PLMs, RAMs, CYP1A2, and CYP2D6 to estimate kinetic parameters. The rest of the other conditions remained the same as described in Section 2.3. […] The apparent Km and Vmax values were calculated from nonlinear regression analysis of experimental data according to the Michaelis–Menten equation, and the results were represented graphically by Eadie–Hofstee plots. All incubations were carried out as triplicate independent experiments, and kinetic constants were recorded as mean ± SD.

[2] = substrate: C=C(C)C(CC=C(C)C)Cc1c(O)cc(OC)c2c1O[C@H](c1ccc(O)cc1O)CC2=O; test: Enzyme kinetics of P1 formation from kurarinone in recombinant CYP2D6; conditions: other: recombinant CYP2D6; kurarinone 1–200 μM; 37.0 °C
Method: as §1, §2

effect of selective CYP inhibitor on formation of P1 from kurarinone (HLMs): remarkably inhibited
Molecule: Cc1nc2c([nH]1)c(=O)n(C)c(=O)n2Cc1ccco1 [furafylline]

B1: CYP1A2 (Homo sapiens) (protein)
chain: MALSQSVPFSATELLLASAIFCLVFWVLKGLRPRVPKGLKSPPEPWGWPLLGHVLTLGKNPHLALSRMSQRYGDVLQIRIGSTPVLVLSRLDTIRQALVRQGDDFKGRPDLYTSTLITDGQSLTFSTDSGPVWAARRRLAQNALNTFSIASDPASSSSCYLEEHVSKEAKALISRLQELMAGPGHFDPYNQVVVSVANVIGAMCFGQHFPESSDEMLSLVKNTHEFVETASSGNPLDFFPILRYLPNPALQRFKAFNQRFLWFLQKTVQEHYQDFDKNSVRDITGALFKHSKKGPRASGNLIPQEKIVNLVNDIFGAGFDTVTTAISWSLMYLVTKPEIQRKIQKELDTVIGRERRPRLSDRPQLPYLEAFILETFRHSSFLPFTIPHSTTRDTTLNGFYIPKKCCVFVNQWQVNHDPELWEDPSEFRPERFLTADGTAINKPLSEKMMLFGMGKRRCIGEVLAKWEIFLFLAILLQQLEFSVPPGVKVDLTPIYGLTMKHARCEHVQARLRFSIN
notes: purchased BD Gentest Corp. (Woburn, MA, USA)
Km [1]: 9.45 ± 2.11 µM | kcat [1]: 2.45 ± 0.25 μmol·min^−1·nmol^−1 CYP

B2: CYP2D6 (Homo sapiens) (protein)
chain: MGLEALVPLAVIVAIFLLLVDLMHRRQRWAARYPPGPLPLPGLGNLLHVDFQNTPYCFDQLRRRFGDVFSLQLAWTPVVVLNGLAAVREALVTHGEDTADRPPVPITQILGFGPRSQGVFLARYGPAWREQRRFSVSTLRNLGLGKKSLEQWVTEEAACLCAAFANHSGRPFRPNGLLDKAVSNVIASLTCGRRFEYDDPRFLRLLDLAQEGLKEESGFLREVLNAVPVLLHIPALAGKVLRFQKAFLTQLDELLTEHRMTWDPAQPPRDLTEAFLAEMEKAKGNPESSFNDENLRIVVADLFSAGMVTTSTTLAWGLLLMILHPDVQRRVQQEIDDVIGQVRRPEMGDQAHMPYTTAVIHEVQRFGDIVPLGVTHMTSRDIEVQGFRIPKGTTLITNLSSVLKDEAVWEKPFRFHPEHFLDAQGHFVKPEAFLPFSAGRRACLGEPLARMELFLFFTSLLQHFSFSVPTGQPRPSHHGVFAFLVSPSPYELCAVPR
notes: as for B1
Km [2]: 13.76 ± 3.09 µM | kcat [2]: 2.78 ± 0.36 μmol·min^−1·nmol^−1 CYP
